Test results from patent US20240016900.

Target: Human type I collagen, P02452
Sequence (P02452 162-1218, chain 1 of 2): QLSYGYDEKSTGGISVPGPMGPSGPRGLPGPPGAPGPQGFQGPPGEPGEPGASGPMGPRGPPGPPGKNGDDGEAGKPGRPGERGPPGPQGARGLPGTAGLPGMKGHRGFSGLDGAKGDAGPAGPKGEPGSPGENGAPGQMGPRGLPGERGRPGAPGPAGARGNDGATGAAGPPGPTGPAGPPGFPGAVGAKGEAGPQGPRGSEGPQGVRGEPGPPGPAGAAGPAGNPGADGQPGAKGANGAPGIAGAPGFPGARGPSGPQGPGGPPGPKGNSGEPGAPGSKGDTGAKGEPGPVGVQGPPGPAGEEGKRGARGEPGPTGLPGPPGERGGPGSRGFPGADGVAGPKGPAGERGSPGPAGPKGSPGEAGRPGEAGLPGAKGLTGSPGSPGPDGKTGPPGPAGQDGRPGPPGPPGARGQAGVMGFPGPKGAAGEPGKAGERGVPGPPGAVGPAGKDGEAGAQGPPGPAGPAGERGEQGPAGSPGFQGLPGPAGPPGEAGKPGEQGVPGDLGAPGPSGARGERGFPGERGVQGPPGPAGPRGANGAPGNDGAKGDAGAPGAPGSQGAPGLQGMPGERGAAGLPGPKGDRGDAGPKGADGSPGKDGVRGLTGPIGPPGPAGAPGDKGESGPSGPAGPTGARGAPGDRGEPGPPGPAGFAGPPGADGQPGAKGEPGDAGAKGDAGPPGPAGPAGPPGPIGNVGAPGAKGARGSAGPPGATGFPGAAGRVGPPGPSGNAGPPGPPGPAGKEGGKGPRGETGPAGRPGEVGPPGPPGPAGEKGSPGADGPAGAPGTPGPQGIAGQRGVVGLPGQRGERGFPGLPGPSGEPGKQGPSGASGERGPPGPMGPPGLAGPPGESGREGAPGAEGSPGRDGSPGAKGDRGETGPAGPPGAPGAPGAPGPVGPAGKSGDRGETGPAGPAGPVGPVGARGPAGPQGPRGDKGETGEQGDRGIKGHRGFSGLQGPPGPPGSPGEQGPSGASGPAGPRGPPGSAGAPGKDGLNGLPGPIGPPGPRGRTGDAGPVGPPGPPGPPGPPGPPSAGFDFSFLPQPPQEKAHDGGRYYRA
Sequence (chain, as listed by the source, chain 2 of 2): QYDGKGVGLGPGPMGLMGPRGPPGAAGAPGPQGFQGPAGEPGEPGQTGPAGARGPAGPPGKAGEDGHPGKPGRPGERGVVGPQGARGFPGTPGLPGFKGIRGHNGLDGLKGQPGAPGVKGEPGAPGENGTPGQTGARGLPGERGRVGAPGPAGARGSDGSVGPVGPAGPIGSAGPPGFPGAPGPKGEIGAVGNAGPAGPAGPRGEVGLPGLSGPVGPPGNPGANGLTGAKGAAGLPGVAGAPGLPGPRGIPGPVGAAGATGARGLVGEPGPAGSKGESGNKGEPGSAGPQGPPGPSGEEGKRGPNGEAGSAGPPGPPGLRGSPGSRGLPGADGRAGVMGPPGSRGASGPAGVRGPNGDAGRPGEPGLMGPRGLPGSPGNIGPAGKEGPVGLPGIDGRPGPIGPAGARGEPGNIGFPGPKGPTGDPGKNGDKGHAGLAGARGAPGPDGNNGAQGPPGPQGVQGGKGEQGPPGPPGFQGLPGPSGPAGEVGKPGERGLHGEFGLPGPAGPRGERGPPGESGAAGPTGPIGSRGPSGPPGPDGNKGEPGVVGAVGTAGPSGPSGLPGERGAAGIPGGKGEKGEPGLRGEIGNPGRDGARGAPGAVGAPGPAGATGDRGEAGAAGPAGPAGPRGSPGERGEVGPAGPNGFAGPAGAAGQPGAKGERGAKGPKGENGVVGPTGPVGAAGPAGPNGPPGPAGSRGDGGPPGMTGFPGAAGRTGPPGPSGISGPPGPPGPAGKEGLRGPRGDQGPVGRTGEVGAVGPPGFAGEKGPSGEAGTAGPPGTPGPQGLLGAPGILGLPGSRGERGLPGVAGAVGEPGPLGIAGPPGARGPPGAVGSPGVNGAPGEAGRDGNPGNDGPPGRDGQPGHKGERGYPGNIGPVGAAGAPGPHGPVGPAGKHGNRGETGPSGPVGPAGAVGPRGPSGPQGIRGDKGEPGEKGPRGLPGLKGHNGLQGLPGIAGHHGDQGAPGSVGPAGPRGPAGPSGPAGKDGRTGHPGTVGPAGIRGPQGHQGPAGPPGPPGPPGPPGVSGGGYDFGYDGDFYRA

B1: MMP1 (matrix metalloproteinase 1) (protein)
chain: FVLTEGNPRWEQTHLTYRIENYTPDLPRADVDHAIEKAFQLWSNVTPLTFTKVSEGQADIMISFVRGDHRDNSPFDGPGGNLAHAFQPGPGIGGDAHFDEDERWTNNFREYNLHRVAAHELGHSLGLSHSTDIGALMYPSYTFSGDVQLAQDDIDGIQAIYGRSQNPVQPIGPQTPKACDSKLTFDAITTIRGEVMFFKDRFYMRTNPFYPEVELNFISVFWPQLPNGLEAAYEFADRDEVRFFKGNKYWAVQGQNVLHGYPKDIYSSFGFPRTVKHIDAALSEENTGKTYFFVANKYWRYDEYKRSMDPGYPKMIAHDFPGIGHKVDAVFMKDGFFYFFHGTRQYKFDPKTKRILTLQKANSWFNCRKN
  collagen fiber, fibril and network structure on a substrate, by atomic force microscopy: MMP-treated samples, however, showed a substantial amount of disorganized collagen and little remaining fiber/fibril formation
  collagen fiber, fibril and network structure on a substrate, by scanning electron microscopy: MMP treatment of the substrate resulted in a readily observable amount of disruption of the collagen fibers, fibrils and network
